In the Immune Epitope Database (IEDB):

Key:
HLA-B*58:01 [1] = test: IEDB peptide-MHC binding, purified MHC/competitive/radioactivity; filed as Kd, often an IC50 or EC50 that approximates it; ≥ and ≤ were set here for values at or beyond the usual limits of such assays
HLA-A*32:01 = test: as above; details: source organism: Dengue virus 4 Philippines/H241/1956
HLA-B*57:01 [2] = test: as above
HLA-B*15:42 = test: IEDB peptide-MHC binding, purified MHC/competitive/fluorescence; filed as Kd, often an IC50 or EC50 that approximates it; ≥ and ≤ were set here for values at or beyond the usual limits of such assays; details: source organism: Mycobacterium tuberculosis H37Rv
HLA-B*45:06 = test: as above; details: source organism: Mycobacterium tuberculosis H37Rv
HLA-B*83:01 = test: as above; details: source organism: Mycobacterium tuberculosis H37Rv
HLA-A*26:01 = test: as above
HLA-A*02:19 = test: as above
HLA-A*68:02 [3] = test: as above; details: source organism: Escherichia coli str. K-12 substr. W3110
HLA-A*69:01 [4] = test: as above; details: source organism: Escherichia coli str. K-12 substr. W3110
HLA-A*02:12 [5] = test: as above
HLA-B*18:01 [6] = test: as above
HLA-B*27:03 = test: as above
HLA-A*03:01 [7] = test: as above
HLA-A*24:03 [8] = test: as above
HLA-B*39:01 [9] = test: as above
HLA-B*46:01 [10] = test: as above; details: source organism: Escherichia coli str. K-12 substr. W3110
HLA-B*51:01 = test: as above
HLA-A*02:01 [11] = test: as above
HLA-B*57:01 [12] = test: as above
HLA-B*15:17 = test: as above; details: source organism: Escherichia coli str. K-12 substr. W3110
HLA-C*15:02 = test: IEDB peptide-MHC binding, purified MHC/direct/fluorescence; filed as Kd, often an IC50 or EC50 that approximates it; ≥ and ≤ were set here for values at or beyond the usual limits of such assays; details: source organism: Bacillus cereus G9241
HLA-A*02:03 = test: IEDB peptide-MHC binding, purified MHC/competitive/fluorescence; filed as Kd, often an IC50 or EC50 that approximates it; ≥ and ≤ were set here for values at or beyond the usual limits of such assays; details: source organism: Bacillus cereus G9241
HLA-B*48:01 = test: IEDB peptide-MHC binding, purified MHC/direct/fluorescence; filed as Kd, often an IC50 or EC50 that approximates it; ≥ and ≤ were set here for values at or beyond the usual limits of such assays; details: source organism: Reston ebolavirus - Reston
HLA-B*44:02 = test: as above; details: source organism: Reston ebolavirus - Reston
HLA-A*68:02 [13] = test: as above; details: source organism: Reston ebolavirus
HLA-A*69:01 [14] = test: as above; details: source organism: Reston ebolavirus - Reston
HLA-A*02:12 [15] = test: as above; details: source organism: Reston ebolavirus
HLA-B*27:05 = test: as above; details: source organism: Reston ebolavirus - Reston
HLA-A*29:02 = test: as above; details: source organism: Reston ebolavirus - Reston
HLA-B*18:01 [16] = test: as above; details: source organism: Reston ebolavirus - Reston
HLA-A*03:01 [17] = test: as above; details: source organism: Reston ebolavirus - Reston
HLA-A*24:03 [18] = test: as above; details: source organism: Reston ebolavirus
HLA-B*39:01 [19] = test: as above; details: source organism: Reston ebolavirus - Reston
HLA-B*58:01 [20] = test: as above; details: source organism: Reston ebolavirus - Reston
HLA-A*31:01 = test: as above; details: source organism: Reston ebolavirus - Reston
HLA-B*40:01 = test: as above; details: source organism: Reston ebolavirus - Reston
HLA-B*46:01 [21] = test: as above; details: source organism: Reston ebolavirus - Reston
HLA-B*15:01 [22] = test: as above; details: source organism: Reston ebolavirus - Reston
HLA-A*02:01 [23] = test: as above; details: source organism: Reston ebolavirus - Reston
HLA-B*07:02 = test: as above; details: source organism: Reston ebolavirus - Reston
HLA-B*57:01 [24] = test: as above; details: source organism: Reston ebolavirus - Reston
HLA-A*01:01 = test: as above; details: source organism: Reston ebolavirus - Reston
HLA-A*02:11 = test: as above; details: source organism: Reston ebolavirus
HLA-A*23:01 = test: as above; details: source organism: Reston ebolavirus
HLA-B*15:01 [25] = test: IEDB peptide-MHC binding, purified MHC/competitive/fluorescence; filed as Kd, often an IC50 or EC50 that approximates it; ≥ and ≤ were set here for values at or beyond the usual limits of such assays; details: source organism: Vibrio vulnificus CMCP6
[26] = source organism: Dengue virus 4 Philippines/H241/1956
[27] = source organism: Escherichia coli str. K-12 substr. W3110
[28] = source organism: Dengue virus 1 Brazil/97-11/1997
[29] = source organism: Dengue virus 2 Jamaica/1409/1983
[30] = source organism: Bacillus cereus G9241
[31] = source organism: Reston ebolavirus
[32] = source organism: Vibrio vulnificus CMCP6

For RSWNTGFDW, the Kd (HLA-B*58:01 [1]; [26]) was 0.0179 µM, the Kd (HLA-A*32:01) was 0.0447 µM and the Kd (HLA-B*57:01 [2]; [26]) was 0.0138 µM.
For FPRIGTAVF, the Kd (HLA-B*15:42) was no less than 5 µM, the Kd (HLA-B*45:06) was no less than 5 µM and the Kd (HLA-B*83:01) was 8.31 µM.
IQFDWYPTS was tested, and the Kd (HLA-A*26:01; [27]) was no less than 20 µM, the Kd (HLA-A*02:19; [27]) was no less than 20 µM and the Kd (HLA-A*68:02 [3]) was no less than 20 µM. For the same sequence, the Kd (HLA-A*69:01 [4]) was no less than 20 µM, the Kd (HLA-A*02:12 [5]; [27]) was 0.624 µM and the Kd (HLA-B*18:01 [6]; [27]) was no less than 20 µM. It also gave a Kd (HLA-B*27:03; [27]) of no less than 20 µM, a Kd (HLA-A*03:01 [7]; [27]) of no less than 20 µM and a Kd (HLA-A*24:03 [8]; [27]) of no less than 20 µM. For the same sequence, the Kd (HLA-B*39:01 [9]; [27]) was no less than 20 µM, the Kd (HLA-B*46:01 [10]) was no less than 20 µM and the Kd (HLA-B*51:01; [27]) was no less than 20 µM. The Kd (HLA-A*02:01 [11]; [27]) was no less than 20 µM, the Kd (HLA-B*57:01 [12]; [27]) was no less than 20 µM and the Kd (HLA-B*15:17) was no less than 20 µM.
TAAVLMLVAH gave a Kd (HLA-B*58:01 [1]; [28]) of 5.54 µM.
For KSYAQMWQL, the Kd (HLA-B*58:01 [1]; [28]) was 0.00783 µM and the Kd (HLA-B*57:01 [2]; [28]) was 0.00198 µM.
Sequence KAINVLRGF has a Kd (HLA-B*58:01 [1]; [29]) of 0.043 µM and a Kd (HLA-B*57:01 [2]; [29]) of 0.00343 µM.
In the case of ASSALLWMAS, the Kd (HLA-B*58:01 [1]; [28]) is reported as 17 µM and the Kd (HLA-B*57:01 [2]; [28]) is reported as 17.1 µM.
ITNPFFYQM was tested, and the Kd (HLA-C*15:02) was 0.056 µM, the Kd (HLA-A*26:01; [30]) was no less than 20 µM and the Kd (HLA-B*18:01 [6]; [30]) was no less than 20 µM. The Kd (HLA-B*27:03; [30]) was no less than 20 µM, the Kd (HLA-A*03:01 [7]; [30]) was no less than 20 µM and the Kd (HLA-B*39:01 [9]; [30]) was no less than 20 µM. For the same sequence, the Kd (HLA-B*57:01 [12]; [30]) was 0.27 µM and the Kd (HLA-A*02:03) was no less than 20 µM.
With ASSLLKNDIP the Kd (HLA-B*58:01 [1]; [29]) was 2.1 µM and the Kd (HLA-B*57:01 [2]; [29]) was 8.58 µM.
VASGLLWVAE showed a Kd (HLA-B*58:01 [1]; [26]) of 0.0754 µM and a Kd (HLA-B*57:01 [2]; [26]) of no less than 70.4 µM.
With KHDFIDNPL the Kd (HLA-B*48:01) was no less than 20 µM, the Kd (HLA-B*44:02) was no less than 20 µM and the Kd (HLA-A*68:02 [13]) was no less than 20 µM. For the same sequence, the Kd (HLA-A*69:01 [14]) was no less than 20 µM, the Kd (HLA-A*02:12 [15]) was no less than 20 µM and the Kd (HLA-B*27:05) was no less than 20 µM. The Kd (HLA-A*29:02) was no less than 20 µM, the Kd (HLA-B*18:01 [16]) was no less than 20 µM and the Kd (HLA-A*03:01 [17]) was no less than 20 µM. The Kd (HLA-A*24:03 [18]) was no less than 20 µM, the Kd (HLA-B*39:01 [19]) was 4.89 µM and the Kd (HLA-B*58:01 [20]) was no less than 20 µM. The Kd (HLA-A*31:01) was no less than 20 µM, the Kd (HLA-B*40:01) was no less than 20 µM and the Kd (HLA-B*46:01 [21]) was no less than 20 µM. The Kd (HLA-B*15:01 [22]) was no less than 20 µM, the Kd (HLA-A*02:01 [23]) was no less than 20 µM and the Kd (HLA-B*07:02) was no less than 20 µM. It also gave a Kd (HLA-B*57:01 [24]) of no less than 20 µM, a Kd (HLA-A*01:01) of no less than 20 µM and a Kd (HLA-A*02:11) of no less than 20 µM. It also gave a Kd (HLA-A*23:01) of no less than 20 µM, a Kd (HLA-A*26:01; [31]) of no less than 20 µM and a Kd (HLA-B*27:03; [31]) of no less than 20 µM. The Kd (HLA-B*51:01; [31]) was no less than 20 µM.
For LMLHQQYNQ, the Kd (HLA-A*26:01; [32]) was no less than 20 µM, the Kd (HLA-A*02:19; [32]) was no less than 20 µM and the Kd (HLA-A*02:12 [5]; [32]) was 0.186 µM. For the same sequence, the Kd (HLA-B*18:01 [6]; [32]) was no less than 20 µM, the Kd (HLA-B*27:03; [32]) was no less than 20 µM and the Kd (HLA-A*03:01 [7]; [32]) was no less than 20 µM. For the same sequence, the Kd (HLA-A*24:03 [8]; [32]) was no less than 20 µM, the Kd (HLA-B*39:01 [9]; [32]) was no less than 20 µM and the Kd (HLA-B*51:01; [32]) was no less than 20 µM. It also gave a Kd (HLA-B*15:01 [25]) of no less than 20 µM, a Kd (HLA-A*02:01 [11]; [32]) of 0.191 µM and a Kd (HLA-B*57:01 [12]; [32]) of no less than 20 µM.
